Holding throughout (assay): SPOT array
Experiment [1] has as its target T1, Boi1 SH3 (BOI1_YEAST), P38041.
T1 chain: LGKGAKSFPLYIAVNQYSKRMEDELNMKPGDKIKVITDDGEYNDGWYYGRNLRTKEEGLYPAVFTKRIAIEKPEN

The target in experiment [2] is T2, Boi2 SH3 (BOI2_YEAST), P39969.
T2 chain: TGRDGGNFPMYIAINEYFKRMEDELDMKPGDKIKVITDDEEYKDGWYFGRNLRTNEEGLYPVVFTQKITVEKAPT

The target of experiment [3] is T3, Myo5 SH3 (MYO5_YEAST), Q04439.
T3 chain: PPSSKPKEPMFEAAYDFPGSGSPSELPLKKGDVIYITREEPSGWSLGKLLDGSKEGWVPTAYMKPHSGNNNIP

In experiment [4] the target is T4, Rvs167 SH3 (RV167_YEAST), P39743.
T4 chain: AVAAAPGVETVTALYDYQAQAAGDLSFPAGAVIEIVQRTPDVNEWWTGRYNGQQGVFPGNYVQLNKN

Experiment [5] addresses Sho1 SH3 (SHO1_YEAST), P40073.
Experiment [6] deals with T5, Yfr024 SH3 (LSB3_YEAST), P43603.
T5 chain: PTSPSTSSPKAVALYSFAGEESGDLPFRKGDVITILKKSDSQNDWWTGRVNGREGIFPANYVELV

The target of experiment [7] is T6, Yhr016c SH3 (YSC84_YEAST), P32793.
T6 chain: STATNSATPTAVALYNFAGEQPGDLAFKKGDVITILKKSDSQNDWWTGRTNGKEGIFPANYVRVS

Chain of Sho1 SH3 (SHO1_YEAST), P40073 (P40073 295-366): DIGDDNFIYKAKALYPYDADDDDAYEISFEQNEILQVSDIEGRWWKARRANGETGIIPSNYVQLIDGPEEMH

For the molecule NDLVKRFPEQPPLR [YBR195C 105-118], the normalised SPOT signal, Boehringer light units (BLU); mean over the file's lines of this peptide in experiment [1] was found to be 75800; in experiment [2], 4920; in experiment [3], 21400; in experiment [4], 23000; in experiment [5], 12100; in experiment [6], 1590. Further, the normalised SPOT signal, Boehringer light units (BLU); mean over the file's lines of this peptide in experiment [7] came out at 1430.

As to NDMAKPLPTPPTAE [YOR188W 2-15], the normalised SPOT signal, Boehringer light units (BLU); mean over the file's lines of this peptide in experiment [1] was determined as 71; in experiment [2], 54; in experiment [3] it was 114; in experiment [4] it was 56.7; in experiment [5], 13000; in experiment [6], 710. The normalised SPOT signal, Boehringer light units (BLU); mean over the file's lines of this peptide in experiment [7] was determined as 203.

Take NDDKKTEPDKPAFS [YJL041W 186-199]: the normalised SPOT signal, Boehringer light units (BLU); mean over the file's lines of this peptide was 52.4 in experiment [1]; 17.3 in experiment [2]; 140 in experiment [3]; 47.9 in experiment [4]; 26 in experiment [5]; 63.4 in experiment [6]. This molecule also had a normalised SPOT signal, Boehringer light units (BLU); mean over the file's lines of this peptide in experiment [7] of 37.1.

Regarding NEFAKFAPDLPVLK [YFR038W 287-300], the normalised SPOT signal, Boehringer light units (BLU); mean over the file's lines of this peptide was 24.4 in experiment [1]; 12.3 in experiment [2]; 135 in experiment [3]; 69 in experiment [4]; 99.4 in experiment [5]; 132 in experiment [6]. Moreover, the normalised SPOT signal, Boehringer light units (BLU); mean over the file's lines of this peptide in experiment [7] came out at 7.9.

As to NAPPRIFPKAPIYG [YDR283C 1060-1073], the normalised SPOT signal, Boehringer light units (BLU); mean over the file's lines of this peptide is 8550 in experiment [1]; 40.1 in experiment [2]; 168 in experiment [3]; 156 in experiment [4]; 140 in experiment [5]; 2080 in experiment [6]. The normalised SPOT signal, Boehringer light units (BLU); mean over the file's lines of this peptide in experiment [7] came to 186.

As for NESEKSSPWSPYKV [YBR156C 157-170], the normalised SPOT signal, Boehringer light units (BLU); mean over the file's lines of this peptide is 96.5 in experiment [1]; 28.4 in experiment [2]; 222 in experiment [3]; 74.7 in experiment [4]; 26.5 in experiment [5]; 408 in experiment [6]. In experiment [7], this molecule came in with a normalised SPOT signal, Boehringer light units (BLU); mean over the file's lines of this peptide of 30.5.

Turning to NELIKQGPKRPTSA [YMR072W 36-49], the normalised SPOT signal, Boehringer light units (BLU); mean over the file's lines of this peptide in experiment [1] is 462; in experiment [2] it was 22; in experiment [3] it was 176; in experiment [4], 60.6; in experiment [5], 32.2; in experiment [6], 246. In experiment [7], this molecule displayed a normalised SPOT signal, Boehringer light units (BLU); mean over the file's lines of this peptide of 17.2.

Turning to MYDRKVIPRMPWHD [YKR031C 861-874], the normalised SPOT signal, Boehringer light units (BLU); mean over the file's lines of this peptide in experiment [1] came out at 7810; in experiment [2], 395; in experiment [3], 357; in experiment [4], 1490; in experiment [5], 569; in experiment [6], 1600. For the same molecule, the normalised SPOT signal, Boehringer light units (BLU); mean over the file's lines of this peptide in experiment [7] turned out to be 742.

With NDNEKKKPSSPTAA [YLL010C 80-93], the normalised SPOT signal, Boehringer light units (BLU); mean over the file's lines of this peptide in experiment [1] was 212; in experiment [2], 61; in experiment [3], 98.5; in experiment [4], 80.7; in experiment [5] it was 39.5; in experiment [6], 36.9. For the same molecule, in experiment [7], the normalised SPOT signal, Boehringer light units (BLU); mean over the file's lines of this peptide was 20.6.

Take NELVKRFPGHPPLR [YHR108W 109-122]: the normalised SPOT signal, Boehringer light units (BLU); mean over the file's lines of this peptide worked out at 733 in experiment [1]; 7.9 in experiment [2]; 300 in experiment [3]; 55.2 in experiment [4]; 37.2 in experiment [5]; 211 in experiment [6]. Besides, the normalised SPOT signal, Boehringer light units (BLU); mean over the file's lines of this peptide in experiment [7] came to 101.

Turning to MTVPRNRPMAPFGT [YLR064W 1-14], the normalised SPOT signal, Boehringer light units (BLU); mean over the file's lines of this peptide was determined as 1210 in experiment [1]; 55.2 in experiment [2]; 596 in experiment [3]; 187 in experiment [4]; 186 in experiment [5]; 466 in experiment [6]. This molecule yielded a normalised SPOT signal, Boehringer light units (BLU); mean over the file's lines of this peptide in experiment [7] of 213.

Consider MYGSKFIPFGPKSQ [YER038C 415-428], for which the normalised SPOT signal, Boehringer light units (BLU); mean over the file's lines of this peptide in experiment [1] turned out to be 131; in experiment [2] it was 326; in experiment [3], 290; in experiment [4], 375; in experiment [5], 145; in experiment [6] it was 898. The normalised SPOT signal, Boehringer light units (BLU); mean over the file's lines of this peptide in experiment [7] amounted to 118.

Regarding NAPERAVPILPPRN [YBR108W 539-552], the normalised SPOT signal, Boehringer light units (BLU); mean over the file's lines of this peptide in experiment [1] came out at 3280; in experiment [2], 83; in experiment [3], 741; in experiment [4] it was 16500; in experiment [5], 52.7; in experiment [6] it was 24400. The normalised SPOT signal, Boehringer light units (BLU); mean over the file's lines of this peptide in experiment [7] came to 36600.

Take NAQLRKTPLEPGLE [YDL126C 668-681]: the normalised SPOT signal, Boehringer light units (BLU); mean over the file's lines of this peptide was determined as 156 in experiment [1]; 88.8 in experiment [2]; 176 in experiment [3]; 116 in experiment [4]; 48.6 in experiment [5]; 371 in experiment [6]. This molecule yielded a normalised SPOT signal, Boehringer light units (BLU); mean over the file's lines of this peptide in experiment [7] of 79.9.

Source of the values: paper PMC314469, “Protein Interaction Networks by Proteome Peptide Scanning” (PLoS Biology, 2004).
